Drawing on article PMC5931981, “Identification of a pyrophosphate-dependent kinase and its donor selectivity determinants” (Nature Communications, 2018), this text covers X-ray crystal structure, kcat and Km for three molecules.

For one data set, the target named is T1, TM0415 (Thermotoga maritima, UniProt Q9WYP6).
T1 construct: gene TM_0415; synthetic gene in pET-15b, E. coli BL21(DE3)pLysS; N-terminal His-tag for activity and kinetics; untagged for crystallization; monomer
T1 sequence (Q9WYP6 1-286): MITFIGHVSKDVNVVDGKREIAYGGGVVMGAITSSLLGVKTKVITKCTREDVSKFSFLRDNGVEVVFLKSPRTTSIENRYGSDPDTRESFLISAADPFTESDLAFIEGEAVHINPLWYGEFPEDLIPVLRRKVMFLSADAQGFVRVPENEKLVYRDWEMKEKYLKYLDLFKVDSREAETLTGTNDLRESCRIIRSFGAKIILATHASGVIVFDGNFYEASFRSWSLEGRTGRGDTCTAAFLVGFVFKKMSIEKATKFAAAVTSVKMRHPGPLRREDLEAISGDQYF
In words: X-ray crystal structure. The class given is binding. To be noted: untagged.

Substrate in data set [1]: O=P(O)(O)OP(=O)(O)O
The experiment in a line: malachite green Pi assay. In kind it is biochemical, Thermotoga maritima. To be noted: myo-inositol as acceptor, 500 µM MgCl2, 50 mM MES-NaOH pH 6.1, 70 °C, His-tagged, upper limit, velocity constant at 15-500 µM.

Substrate in data set [2]: O[C@H]1[C@H](O)[C@@H](O)[C@H](O)[C@@H](O)[C@H]1O
The experiment in a line: malachite green Pi assay. The class given is biochemical, Thermotoga maritima. To be noted: PPi as phosphate donor, 500 µM MgCl2, 50 mM MES-NaOH pH 6.1, 70 °C, His-tagged.

For `O[C@H]1[C@H](O)[C@@H](O)[C@H](O)[C@@H](O)[C@H]1O` [myo-inositol], the X-ray crystal structure result on TM0415 (phosphate-acceptor site, with PCP and Mg2+, also in sulfate complex 5YSQ) was “D11, N78, Q141, and R145 in TM0415 interact with four of the six hydroxyl groups”.
On to `O=P(O)(O)CP(=O)(O)O` [PCP], for which the X-ray crystal structure result on TM0415 (phosphate-donor site, chain A, with Mg2+ and myo-inositol) is “Chain A was complexed with PCP, a magnesium ion, and myo-inositol”.

B1: TM0415 (Thermotoga maritima MSB8) (protein)
chain: MITFIGHVSKDVNVVDGKREIAYGGGVVMGAITSSLLGVKTKVITKCTREDVSKFSFLRDNGVEVVFLKSPRTTSIENRYGSDPDTRESFLISAADPFTESDLAFIEGEAVHINPLWYGEFPEDLIPVLRRKVMFLSADAQGFVRVPENEKLVYRDWEMKEKYLKYLDLFKVDSREAETLTGTNDLRESCRIIRSFGAKIILATHASGVIVFDGNFYEASFRSWSLEGRTGRGDTCTAAFLVGFVFKKMSIEKATKFAAAVTSVKMRHPGPLRREDLEAISGDQYF
notes: synthetic gene in pET-15b, E. coli BL21(DE3)pLysS; N-terminal His-tag for activity and kinetics; untagged for crystallization; monomer
As a reminder, the kcat is the maximal rate divided by the concentration of active sites. Broadly, the Km is the concentration of substrate that gives half-maximal velocity. Regarding B1, the kcat in the data set “malachite green Pi assay [1]” was approximately 9.5 s⁻¹. Moreover, in the data set “malachite green Pi assay [2]”, the Km is 12 ± 2 mM and the kcat is 10.8 ± 0.3 s⁻¹.
